± gives the uncertainty stated by the source.
Experiment: amyloid nucleation score (Sup35N fusion, yeast selection) (log enrichment); library NNK1; higher = more nucleation; inactive = no reads after selection
Method in brief: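 The nucleation score is a DiMSum log enrichment of output over input reads, centred on the mode score of non-aggregating sequences. Sequences under 100 input reads were excluded, and reads came from Illumina sequencing of plasmid inserts. Psi-negative yeast expressing Sup35N fused to peptides of 20 random codons were induced with 100 μM copper sulfate for 24 hours and grown 7 days at 30°C on medium lacking adenine and uracil. Random libraries had three technical output replicates.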

| Substance | amyloid nucleation score |
| --- | --- |
| VGTFTGV | -0.189 ± 0.43 |
| RISNRCSCSCNFDQGGVRQP | 0.394 ± 1.1 |
| MLFLARRILSEYRFMPTWVG | inactive |
| YPYRV | -1.12 ± 1.2 |
| DEDERWCLDIVG | -0.076 ± 0.37 |
| TRWLILWNLAGPTGCYFRIL | 0.063 ± 0.63 |
| IYRAHYAIYSAF | -0.026 ± 0.64 |
| YRPIDFLIPYSSVML | inactive |
| CFVGYQW | 0.622 ± 0.63 |
| NWSEWGSRIHFKCWIEMLLR | 0.174 ± 0.55 |
| LRCYEDLFVGLAHGRMRYTG | -0.561 ± 1.7 |
| PFIDNRFKLFRSDGTVRWVI | inactive |
| RCGGM | -0.381 ± 0.64 |
| SVWCSFFVNAADHNIYRTIT | 1.11 ± 0.15 |
| PSWWVMEFTWIPQNGGLLSL | 6.64 ± 0.082 |
| MKGARFARS | 0.91 ± 0.8 |
| YPMRTQRVASHMV | -0.383 ± 0.58 |
| SLYTKLAVPLGKWRIGYRLT | 0.46 ± 0.58 |
| SILFATAFMPVGLRLNDVLS | -0.003 ± 0.46 |
| RFCGVMESERTVIRKCREVG | 0.095 ± 0.42 |
| IRMDSCRTFYLSLSWHIYCS | 0.338 ± 0.23 |
| NICWFGVSRLQKMEGLWTGA | 0.515 ± 0.67 |
| WAILNDVMYHMWLNTFRTNV | -0.295 ± 0.64 |
| LDEVHESSIRSGNY | 3.12 ± 0.17 |
| YSGCRTPDTVSVVTSTHAEY | inactive |
| NRNVYRSGVFGSGVWTRVER | 0.15 ± 0.45 |

| Substance | amyloid nucleation score |
| --- | --- |
| ATMVMELMVSELGLEEVFDV | -0.216 ± 0.49 |
| RCRYVRLETSLC | -0.083 ± 0.47 |
| GETRGVPPNFFTPIIQLSSA | inactive |
| LDCYRLRCSLEAIECVISNE | -0.479 ± 0.21 |
| CLQWPEYPDYSVGGAFRRTG | -0.311 ± 0.48 |
| WAYWRYVNENRSVCRRKVGF | -0.053 ± 0.31 |
| CCIMSRIGTCLWVEWRWCRG | 0.243 ± 0.39 |
| SHATFRVWHTVVVAV | -0.031 ± 0.34 |
| DDKITSLLVMSRDKVKPMSD | inactive |
| LRIPFTSWRYDNEMAVTGSG | 0.394 ± 0.84 |
| AGLMTGATSLQLMKFCSLGG | -0.729 ± 0.71 |
| DGEFRRDSSCVGVEERVVLV | 0.551 ± 1.2 |
| DNTHSSFIHFETGKKYYA | 0.319 ± 0.78 |
| KRGNPMTHAFLWPVMSYVFR | 0.295 ± 0.97 |
| NKWYVF | 0.071 ± 1.1 |
| GMSVNVWMYSSLGVFCLIYV | -0.107 ± 0.2 |
| SNSRPGSGYSLFERTRYRNE | 0.345 ± 0.77 |
| RNLEVIYNSI | 0.229 ± 0.52 |
| YVTMYVRMPGRFTTTHMWLI | -0.962 ± 0.63 |
| LHGPN | 0.705 ± 0.71 |
| TLVYY | 0.296 ± 0.47 |
| IVHIHGLQAANLAASWSANL | 2.68 ± 0.18 |
| GVTWLSEISV | 0.885 ± 0.73 |
| IGFPRLTSEDS | 0.755 ± 0.4 |
| NNKKNY | -0.505 ± 0.27 |
| SNFLFRCSIWDDMGGKCRSK | inactive |

| Substance | amyloid nucleation score |
| --- | --- |
| REDWSTLEPYPHYDTAIGRS | 1.24 ± 0.8 |
| SGHFILHGFYFCYKKCALIY | 1.06 ± 0.81 |
| PRRMKT | 0.15 ± 0.33 |
| IYGDGNCIIFLMGQRP | 6.38 ± 0.085 |
| LRYVKSHSTMAFKLGATPGT | 0.505 ± 0.66 |
| SSPPDNTKSKATLKALE | -1.5 ± 2.4 |
| ILSIYVSDAYKSMSETN | 1.14 ± 0.42 |
| VCTNRYGPCSPS | 4.26 ± 0.09 |
| PALNRFLGTERDYDRYAGIA | -0.8 ± 0.49 |
| SNAIDRAHPYRFGFCVNDVQ | -0.279 ± 0.47 |
| ITREVSL | 1.36 ± 0.61 |
| TVLWWSSGDSGSCWYYCKIE | -0.177 ± 0.31 |
| LFTNMYSRVLTFLM | -0.441 ± 1.7 |
| SWAIRALKFVWIA | -0.323 ± 0.93 |
| CVTANRHDENITSLLWRIVQ | -2.36 ± 2.4 |
| CNWPDLDLSNRKWNPMKSML | 0.146 ± 0.69 |
| RALSVRSRQLG | 0.135 ± 0.97 |
| MRCPRLASSDNDPCLLSRVS | 0.357 ± 0.39 |
| LFDARDSRFSCRYVMRRVWV | 0.195 ± 0.25 |
| GGECYLLEYLSMSGVYCFRI | -1.25 ± 1.4 |
| RHVVRR | 0.441 ± 0.36 |
| LVFVSFIW | 0.942 ± 0.17 |
| NDDYHTLSQCACSFALRADG | 1.08 ± 0.54 |
| AHGRHDLRWCLRSRDSMWRA | 1.2 ± 0.53 |
| LHETFVCR | -0.267 ± 0.58 |
| RQSLRRSYHHRWKRDVMR | inactive |

| Substance | amyloid nucleation score |
| --- | --- |
| YVLIVNWIRSK | 4.42 ± 0.075 |
| CMYALT | 0.015 ± 0.39 |
| LLVRHEEKG | 0.263 ± 0.42 |
| LIRHVLNLVL | -0.139 ± 0.77 |
| MICYLF | 0.019 ± 0.26 |
| VEDENKDSVIKVEKLLPHNL | -0.342 ± 0.29 |
| ARITMYLCFNRLLVGKVCSG | -0.176 ± 1.1 |
| SETYSSVAWRTMVVAAELVD | 0.822 ± 0.95 |
| GRRTAI | -0.069 ± 0.66 |
| ASGKYNRLCIGFVWGCEQGM | 2.12 ± 0.26 |
| VLTFPLFCIGKLIKN | 6.033 ± 0.045 |
| FVLERTGIRLLCL | 0.363 ± 0.38 |
| IGITRILFVFFIDTATIKNG | -0.855 ± 0.43 |
| TWTLL | 1.18 ± 0.63 |
| VFTSNGNDLPISRSELRLNL | inactive |
| RGNRHTSGNVTL | 0.045 ± 0.35 |
| PFVYGLCESFPFGCQYGWGC | inactive |
| LSPRSSA | -0.322 ± 0.65 |
| QAELYPDQNRGCVGLVVPAD | -0.544 ± 0.54 |
| VRRGFGPIITLYNFIISIWF | 0.895 ± 0.79 |
| TRCPV | 0.253 ± 0.66 |
| AFCNVADCNIRGSWLVRLRR | 1.21 ± 0.41 |
| RTRAGKYMYVSSQPTCSILI | 0.312 ± 0.56 |
| GRVLYKSCALNNFSIMQVLC | 4.61 ± 0.1 |
| VYRRIYNFECWSSKCMLGYP | -0.129 ± 1.6 |
| NLYFIHVSRMIWSNSV | 5.02 ± 0.075 |

| Substance | amyloid nucleation score |
| --- | --- |
| MFSQLGVYISCFLSSSVDVE | 0.317 ± 0.48 |
| GYGLSAL | 1.08 ± 0.73 |
| IYRSMNRLVVQEGYAFIGGG | 2 ± 0.3 |
| LKLLFVTLKMLASMFFRGS | -1.28 ± 0.77 |
| RQGSDGVSSRKLWFFVRIAI | -0.383 ± 1.7 |
| CIIMCLRSDPV | 0.211 ± 0.3 |
| FVTQAGRGMHR | 0.682 ± 0.75 |
| PRGLP | 0.694 ± 0.9 |
| YRDSGDRNLGIAPI | 0.449 ± 0.97 |
| RQARFSFDLRFP | 0.567 ± 0.35 |
| VIHYSGLSMVAVQ | -0.379 ± 0.49 |
| KSQDKRYLSIPGCVLSFWGE | 0.069 ± 0.46 |
| CVNFFGCHCVHN | 7.735 ± 0.069 |
| GRYVSSWFWFRFMQVQANTN | 0.248 ± 0.31 |
| LYVFSEKIFCRNGFSSYISL | 0.855 ± 0.74 |
| RVWCLRTLKCLIAAR | 0.189 ± 0.45 |
| YMGPVV | -0.313 ± 0.33 |
| SLWTLWGFSFGDT | -0.458 ± 0.47 |
| FTSLWDCALTHVVTFPAILG | -1.36 ± 1.8 |
| VSLFLYISLSLRIVRRYVRV | 0.263 ± 0.27 |
| ERGMEVLCNYENKGL | 0.918 ± 0.6 |
| MRRRIQLDLRRFDPSCMKDV | -1.66 ± 1.1 |
| IWLVQIHVSSSMPTSYPHIS | 0.355 ± 1.4 |
| LCGDHLFWLDVGDAVGVFLA | 0.176 ± 0.4 |
| VLFGTCCRVILLWSV | 2.04 ± 0.43 |
| FVVSDIMGDLRKM | 1.38 ± 0.71 |

| Substance | amyloid nucleation score |
| --- | --- |
| MSLFNISSHSWLKFTLCVPG | 1.17 ± 0.66 |
| TSAGKYHSSIILLYLWDYVT | 0.845 ± 0.41 |
| RGDAIMAWGSVVRYIHYILY | 1.51 ± 0.5 |
| IQESVMLVLVDGGVISARL | 0.106 ± 0.3 |
| IKVLSYISWCGGFEKRCVGG | 1.05 ± 0.46 |
| FYGCNSRA | -0.037 ± 0.97 |
| STMRLPWPGFRVHSL | 0.901 ± 0.65 |
| LSQIWIKSPGFAKDFTPILC | 0.045 ± 0.36 |
| ISRISVSEEFKGCMGREWVT | 1.1 ± 0.52 |
| PLHWS | 0.416 ± 0.3 |
| LLNSFPSNCQVKDMELQGME | -0.176 ± 0.93 |
| NIITVGNGSILMMVWSSEVN | 5.63 ± 0.08 |
| SRYYFHFELFVWR | 0.291 ± 0.7 |
| SVFGWR | 1.32 ± 0.81 |
| VDNVRPWRGYQPHSLVLPIV | 0.516 ± 0.47 |
| KKVFFHKRVLSDARCKPVKS | -0.567 ± 0.41 |
| VVLRSGINL | -0.561 ± 0.29 |
| LFGEFRNEINAI | 0.031 ± 0.31 |
| HPYSFWWSWAVKPLPGLRRI | 0.485 ± 0.73 |
| IYCYSYYLCSFLCVYDISKG | -0.457 ± 0.79 |
| HKTFGCCLDLWHIMPHFIIL | -0.396 ± 0.37 |
| LVRRRSKSRVRVPFLRLSMR | -0.415 ± 0.72 |
| IKSEAWICCTSLYMNQGDRS | 8.507 ± 0.065 |
| GQSKLVLHFAILTVVAWPFD | 0.385 ± 0.51 |
| DNRLVSSGMRRGHSGWIGGT | 0.505 ± 0.71 |
| ICHGAEHNV | -0.735 ± 1.7 |

| Substance | amyloid nucleation score |
| --- | --- |
| ARWWVRLEYC | 0.523 ± 0.29 |
| SALIILMHVV | -0.761 ± 1.2 |
| CSDCARIGLMSRCGDETW | 0.132 ± 0.28 |
| GGLILYKKNREFSSLQFSCV | -0.523 ± 0.46 |
| QCSCSKWLAIRDWDGSSKMK | 0.082 ± 1.6 |
| ADILWARFLWMSEGIH | 0.054 ± 0.23 |
| IKSVMDWSSCTEL | -0.144 ± 0.33 |
| RFRYDTVMMNMFLNRVSFGG | 1.38 ± 0.4 |
| LDSCPAL | 0.47 ± 0.57 |
| GLHREATSYLNRLFRINSG | -0.48 ± 0.56 |
| SANCIWFFL | 7.105 ± 0.071 |
| SYLDLRLAVCHCNGA | 5.38 ± 0.055 |
| FQGLSFKHGAIGSAYSQSFD | inactive |
| VDNIYAGVELLFSCKM | -0.331 ± 0.28 |
| CGKSIEETSLRNPIPGNVLG | 0.476 ± 0.55 |
| YCMYMVWLKGK | -0.747 ± 0.37 |
| VEEAYER | -0.485 ± 0.5 |
| NSYLCCIWK | 7.32 ± 0.08 |
| EGYYEPVIVI | 0.66 ± 0.47 |
| CYLSNLAMSHSCMHYALTAA | -0.713 ± 1.4 |
